± gives the standard deviation.
Assay: protein stability index of a GFP-peptide fusion (GPS, HEK-293T) (PSI 1-6); higher = more stable
[1] = treatment: DMSO, c terminus: a fixed tail appended
[2] = treatment: MLN4924 1 uM, 8 h, c terminus: a fixed tail appended
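Note: 24-mer peptide tiles fused after GFP, lentivirally expressed, FACS-sorted into six equal bins by GFP/DsRed ratio, decoded by Illumina sequencing, PSI is the read-weighted mean bin number.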

Sequence | protein stability index [1] | protein stability index [2] | protein stability index (treatment: DMSO, c terminus: native) | protein stability index (treatment: MLN4924 1 uM, 8 h, c terminus: native)
CSELNKLCQHFEAVHSGTPVTNNL [SPACA9] | 2.95 ± 0.47 | 2.97 ± 0.24 |  | 
TNGHGGEAAEGKSLGSALKPGEGR [TRIM29] | 5.08 ± 0.24 | 5.27 ± 0.33 |  | 
QNLSRSWHDVQVSSAYVKTSEKLG [TPD52L2] | 3.98 ± 0.11 | 3.82 ± 0.21 |  | 
SPNFDGWFKTRRKEMTQKLEALHL [DENND6A] | 2.91 ± 0.18 | 3.2 ± 0.41 |  | 
SSISHRFHKDCASRVNNASYCPHC [EHMT1] | 3.48 ± 0.67 | 4.11 ± 0.56 |  | 
GTCALWDVESGQLLQSFHGHGADV [GNB5] | 2.75 ± 0.28 | 2.99 ± 0.51 |  | 
FTYDPWIGKLLYLEDFFVMSDYRG [SAT1] | 2.88 ± 0.51 | 2.79 ± 0.76 |  | 
VKYVGNMHGNEALGRELMLQLSEF [CPN1] | 2.24 ± 0.2 | 2.25 ± 0.39 |  | 
NDEIEEVRLQSIHTMRKISNNITL [INTS4] | 3.75 ± 0.23 | 3.69 ± 0.18 |  | 
KLSARDHQKLEREARICRLLKHSN [CAMK2B] | 3.16 ± 0.47 | 3.52 ± 0.17 |  | 
EDHNENGHTPLMEAGSAGHVEVAR [ANKRD17] | 5.63 ± 0.12 | 5.36 ± 0.12 |  | 
DAFPVHRVMMASASDYFKAMFTGG [KLHL13] | 2.21 ± 0.38 | 2.26 ± 0.23 |  | 
RMKETQKSIYYITGESKEQVANSA [HSP90AB1] | 4.07 ± 0.34 | 4.2 ± 0.25 |  | 
QQQEPPLAMGTVSLGQLPLPPIPH [PLAGL1] | 4.33 ± 0.14 | 4.35 ± 0.15 |  | 
LFLMECEESPNGSEGACEKEKQSR [RHOBTB1] | 4.69 ± 0.44 | 4.83 ± 0.17 |  | 
VYGVSKETFLSFLEYLYTDSCCPA [RHOBTB3] | 2.16 ± 0.41 | 2.1 ± 0.24 |  | 
ACGVAMELYVFGGVRSREDAQGSE [GAN] | 2.22 ± 0.25 | 2.35 ± 0.096 |  | 
PAARRCHSCVQIKNDVFICGGYNG [KLHDC10] | 2.29 ± 0.42 | 2.43 ± 0.2 |  | 
KCLSMFPHYICTLKQPHLLLEKYS [PNLIPRP1] | 2.67 ± 0.69 | 2.51 ± 0.59 |  | 
PHDFIEHFLSKMPEAEENKQIIRK [CCND1] | 3.96 ± 0.21 | 4.27 ± 0.22 |  | 
RGAQGILLVYDITNRWSFDGIDRW [RAB40C] | 2.93 ± 0.91 | 2.79 ± 0.42 |  | 
MQQSNLDPLSPMTASSLLSFAELF [FEM1C] | 2.83 ± 0.29 | 2.52 ± 0.42 |  | 
VGRIANTYNLTEVDKYVNSFVLKN [KLHL13] | 2.64 ± 0.32 | 2.85 ± 0.45 |  | 

Sequence | protein stability index [1] | protein stability index [2] | protein stability index (treatment: DMSO, c terminus: native) | protein stability index (treatment: MLN4924 1 uM, 8 h, c terminus: native)
MWDTKTLGLRQHHCRKCGQAVCGK [WDFY1] | 3.21 ± 0.25 | 3.4 ± 0.27 |  | 
GTPGYLSPEVLRKDPYGKPVDLWA [CAMK2A] | 3.29 ± 0.39 | 3.16 ± 0.29 |  | 
SNIVIMLVGNKSDLRHLRAVPTDE [RAB11A] | 2.42 ± 0.34 | 2.25 ± 0.28 |  | 
VLMLLVALLFTGIAVLGIVMLKRI [SCAMP3] | 2.85 ± 0.63 | 3.02 ± 0.73 |  | 
HPGRGLAGRWLWGAQPCLLLPIVP [ADAMTS4] | 2.08 ± 0.7 | 1.92 ± 0.31 |  | 
MEEMQNKAVVFFVFYLWSAIEIFR [HACD3] | 2.7 | 2.8 ± 0.63 |  | 
SVNSDCETYMSADDLRINLWHLAI [PPP2R2C] | 2.52 ± 0.54 | 2.29 ± 0.21 |  | 
QNLANEEVRKLTQRLEEMTQRMEA [MATN2] | 4.67 ± 0.14 | 4.87 ± 0.39 |  | 
SDTIYSYVRPERLSPISHGNTIAL [TCF25] | 2.37 ± 0.22 | 2.56 ± 0.31 |  | 
TGEAARPHKGLNLHPLLSGRLGRW [PCDHGC5] | 2.77 ± 0.17 | 2.9 ± 0.23 |  | 
EEEPSHVTGREGFPTDAPYPTTLG [ZNF8] | 5.17 ± 0.14 | 5.17 ± 0.14 |  | 
SKSLMTSVPMNGTSIQWKNHDQNN [EDNRA] | 4.25 ± 0.045 | 4.41 ± 0.18 |  | 
PASEKKPVPPSEGKSRLSPAGEMK [BCL2L13] | 5.28 ± 0.19 | 5.27 ± 0.084 |  | 
SGEEFYMLTRRVLQLETVLEGVVS [PKD2L1] | 2.17 ± 0.45 | 2.56 ± 0.17 |  | 
PAMQRYVKRLHEVGRTEPELLVAH [HMOX1] | 3.1 ± 0.29 | 3.37 ± 0.29 |  | 
SRRDESYSRGYRNRRSSRETREYA [RBMY1A1] | 4.5 ± 0.32 | 4.64 ± 0.31 |  | 
LRAEEIETRVTSGSMEALNLKQLR [PPFIA4] | 4.32 ± 0.28 | 4.58 ± 0.57 |  | 
PSAPEALHSLPGVSLSLENRELWK [TBX6] | 3.94 ± 0.19 | 3.96 ± 0.33 |  | 
SKIGSTDNIKYQPKGGQVQIVTKK [MAP2] | 4.37 ± 0.17 | 4.63 ± 0.18 |  | 
KRITASEALKHPWICQRSTVASMM [CAMK2D] | 2.61 ± 0.05 | 2.67 ± 0.27 |  | 
DGVKESTESSNTTIEDEDVKARKQ [CAMK2D] | 5.59 ± 0.15 | 5.74 ± 0.09 |  | 
LQTMLRQSAFLHLPLPEQIHKASA [INTS4] | 2.56 ± 0.22 | 2.44 ± 0.15 |  | 
TKKGDLQWNAGEKKLTGGANWQPK [SNAP91] | 4.07 ± 0.13 | 4.26 ± 0.23 |  | 

Sequence | protein stability index [1] | protein stability index [2] | protein stability index (treatment: DMSO, c terminus: native) | protein stability index (treatment: MLN4924 1 uM, 8 h, c terminus: native)
AGGGGGGAGAGAPGGGRLLLSTSL [INTS3] | 3.19 ± 0.12 | 2.94 ± 0.24 |  | 
VQESQSERLQAAGTDSAGPKTVPS [ELOA2] | 5.29 ± 0.38 | 5.19 ± 0.35 |  | 
QNQVDELERKFRCQQEQLFQTRQE [LRRC45] | 5.04 ± 0.22 | 5.02 ± 0.12 |  | 
NGSMAMGTVPGQAPRLAVAVPAVT [LYSMD4] | 3.77 ± 0.43 | 4 ± 0.23 |  | 
NGERESGLRSLRLFQKLEENGDLY [WDR41] | 3.29 ± 0.12 | 3.52 ± 0.23 |  | 
ANSLLASPTGLSPYLRFGCLSCRL [CRY1] | 2.15 ± 0.27 | 2.37 ± 0.32 |  | 
EDPSQQFLQQSLERVYSLQHLDPQ [INTS4] | 4.18 ± 0.17 | 4.42 ± 0.23 |  | 
HVPNPPSGISFPSVVDHPMPEERA [HESX1] | 3.48 ± 0.74 | 3.99 ± 0.52 |  | 
YLTSQLPPLREIILGPSSAYTQTQ [NFE2L1] | 2.38 ± 0.3 | 2.52 ± 0.1 |  | 
VAFRGLKGKKLYPVVSAVWGHCEI [SPSB1] | 2.62 ± 0.13 | 3.16 ± 0.071 |  | 
AVSQPFRLSSSLQGSAVTLKTSKM [CDC14A] | 3.77 ± 0.3 | 3.71 ± 0.28 |  | 
SQVTATSGNGDFGDWSAFNQAPSG [CLINT1] | 4.59 ± 0.068 | 4.36 ± 0.21 |  | 
QRPADVPEPGRAGYPAPRDEGVLR [HAGHL] | 4.85 ± 0.32 | 4.84 ± 0.15 |  | 
VFFIYLYQRWIYRVDPTRVNEFGM [CLPTM1] | 2.96 ± 0.49 | 2.69 ± 0.055 |  | 
KACSLLDVAVHMPCLGHTFNAGIQ [ZBED1] | 2.19 ± 0.5 | 2.11 ± 0.36 |  | 
FIGEESVAAGEKSILTDNPTWIID [IMPA1] | 2.82 ± 0.46 | 3.38 ± 0.28 |  | 
GDRPRWQRLLGEDKFQWLAGLAPP [ANKRD9] | 2.85 ± 0.35 | 2.7 ± 0.3 |  | 
FPACRVSVTGLDPEARYLFLLDVI [TBX6] | 2.56 ± 0.53 | 2.09 ± 0.24 |  | 
KMEEDIKEEEEKDHNEAMKPEEPP [PCMTD1] | 5.57 ± 0.15 | 5.58 ± 0.31 |  | 
ENLFTGEDLDELEEELNTLDLEE [ZC3H15] |  |  | 4.26 ± 0.32 | 4.65 ± 0.32
TGNYRKGNAHLGYSLVTHIPAGAR [ADAMTSL2] | 2.95 ± 0.17 | 2.69 ± 0.3 |  | 
APGPSRIADYLLLPLAEREHVSRA [TRIB1] | 3 ± 0.46 | 3.38 ± 0.77 |  | 
SKGQPRSQEESEEGEEDATSEVDK [CHGB] | 5.59 ± 0.21 | 5.4 ± 0.19 |  | 

Sequence | protein stability index [1] | protein stability index [2] | protein stability index (treatment: DMSO, c terminus: native) | protein stability index (treatment: MLN4924 1 uM, 8 h, c terminus: native)
CHKYDRNIQVTGSAALFYLTNSEY [ZER1] | 2.28 ± 0.34 | 1.97 ± 0.23 |  | 
MIHRTRKQKYFYKGGLVWDENSSD [CLK3] | 3.06 ± 0.22 | 3.06 ± 0.23 |  | 
HTMRKISNNITLREDQLDTVLAVL [INTS4] | 2.39 ± 0.27 | 2.35 ± 0.21 |  | 
ASSGSNSSASSEQGLLGRSPPTRP [SPRY1] | 5.19 ± 0.34 | 5.38 ± 0.2 |  | 
ATWMLEVCEEQKCEEEVFPLAMNY [CCND1] | 3.61 ± 0.16 | 3.77 ± 0.25 |  | 
VSAQYLSEIEMAKAQRDYELKKAA [FLOT1] | 4.34 ± 0.22 | 4.54 ± 0.14 |  | 
HHRYDDLVRTLYKVQNECPGITRV [CPN1] | 2.69 ± 0.34 | 2.67 ± 0.098 |  | 
SHDPQSSRGSRRRRRQRSEKKKAH [KCNA4] | 5.38 ± 0.53 | 5.38 ± 0.23 |  | 
RTYRYSNRYCGGPGPPITDCEMNS [DYRK1B] | 2.67 ± 0.23 | 2.56 ± 0.11 |  | 
TSSGLATASFRTSKYLLEEWFQNC [TEKT4] | 2.68 ± 0.21 | 2.7 ± 0.14 |  | 
FDIQQGFDNPQVRFFLGDLCSRQD [NSDHL] | 2.94 ± 0.24 | 2.86 ± 0.31 |  | 
PILQGQIDALLEFDVHPNELTNGV [SNAP91] | 3.42 ± 0.29 | 3.4 ± 0.45 |  | 
VCDESVRKLSSAVRSGIVEYLSLV [PRIM1] | 2.34 ± 0.83 | 2.1 ± 0.3 |  | 
PQVRDWSHYFKIIEDLRAQIFANT [KRT18] | 2.52 ± 0.36 | 2.64 ± 0.46 |  | 
PVPTGFFNMWGFGRVSKQASQPVK [WDR41] | 2.84 ± 0.25 | 2.8 ± 0.21 |  | 
SEDGSYGTDVTRCICGFTHDDGYM [KMT2E] | 3.33 ± 0.42 | 3.36 ± 0.34 |  | 
SKRLYGVYDNEKKLQLQLNETKSQ [PLD5] | 4.19 ± 0.27 | 4 ± 0.18 |  | 
ILSFILAIPEAIGFVMVPFEYRGE [EDNRA] | 3.6 ± 0.94 | 3.15 ± 0.51 |  | 
FSEIRETSAKVNWMPPPSRADSFK [TNXB] | 3.58 ± 0.31 | 3.88 ± 0.37 |  | 
LDAMNYHLMPFRQHCRQSLASRIR [KLHL14] | 2.48 ± 0.46 | 2.2 ± 0.24 |  | 

From the supplement of paper PMC10567573
